The text below walks through data of the supplement of paper PMC9112550, “Optimization of the antimicrobial peptide Bac7 by deep mutational scanning” (BMC Biology, 2022).

The data set relates to Escherichia coli TOP10. The data set is described as follows: shrunken log2 fold change of peptide-encoding DNA abundance (4.5 h post-induction vs induction); higher = less antimicrobial activity (less host growth inhibition). Conditions: time post-induction: 4.5 h; library: site-saturation at positions 5, 18, 19, 20.
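Also: peptides expressed intracellularly from a pBAD plasmid library in pooled LB shake-flask culture, induced with 0.3% L-arabinose, DNA abundance read by NGS, three biological replicates, DESeq2 with apeglm shrinkage.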

For the sequence RRIRHRPPRLPRPRPRPSFTPRP, the “shrunken log2 fold change” value is -0.632.
On to RRIRCRPPRLPRPRPRPIYNPRP, for which the “shrunken log2 fold change” value was -0.761.
Turning to RRIRDRPPRLPRPRPRPSRTPRP, the “shrunken log2 fold change” value was 0.208.
For RRIRGRPPRLPRPRPRPGPIPRP, the “shrunken log2 fold change” value came to 0.619.
Consider RRIRARPPRLPRPRPRPNDRPRP, for which the “shrunken log2 fold change” value was -0.0519.
For the sequence RRIRWRPPRLPRPRPRPCNFPRP, the “shrunken log2 fold change” value is -0.464.
As for RRIRYRPPRLPRPRPRPHFEPRP, the “shrunken log2 fold change” value was -0.115.
The figure for RRIRMRPPRLPRPRPRPTKEPRP is -0.0201; for RRIRLRPPRLPRPRPRPMAKPRP it is 0.109; for RRIRERPPRLPRPRPRPYQQPRP it is -0.228.
As for RRIRARPPRLPRPRPRPGVMPRP, the “shrunken log2 fold change” value turned out to be 0.437.
On to RRIRWRPPRLPRPRPRPGAQPRP, for which the “shrunken log2 fold change” value was 0.655.
Turning to RRIRERPPRLPRPRPRPCDRPRP, the “shrunken log2 fold change” value is -0.187.
Take RRIRPRPPRLPRPRPRPANYPRP: the “shrunken log2 fold change” value came out at 0.0679.
As to RRIRMRPPRLPRPRPRPDLGPRP, the “shrunken log2 fold change” value came to 0.11.
Turning to RRIRIRPPRLPRPRPRPYSKPRP, the “shrunken log2 fold change” value is -1.2.
As to RRIRVRPPRLPRPRPRPTWWPRP, the “shrunken log2 fold change” value is 0.0544.
Regarding RRIRHRPPRLPRPRPRPCGFPRP, the “shrunken log2 fold change” value stood at 0.134.
In the case of RRIRTRPPRLPRPRPRPCFAPRP, the “shrunken log2 fold change” value was determined as 0.083.
For the sequence RRIRERPPRLPRPRPRPGWEPRP, the “shrunken log2 fold change” value is 0.0307.
For RRIRIRPPRLPRPRPRPWQPPRP the value was -0.0185; for RRIRRRPPRLPRPRPRPKPIPRP, 0.357.
In the case of RRIRHRPPRLPRPRPRPKKHPRP, the “shrunken log2 fold change” value is -0.324.
Turning to RRIRDRPPRLPRPRPRPCQVPRP, the “shrunken log2 fold change” value is -0.0566.
Take RRIRLRPPRLPRPRPRPNMRPRP: the “shrunken log2 fold change” value was determined as 0.0295.
In the case of RRIRHRPPRLPRPRPRPLRNPRP, the “shrunken log2 fold change” value is -0.0741.
For RRIRFRPPRLPRPRPRPDGQPRP, the “shrunken log2 fold change” value is -0.0411.
For the sequence RRIRVRPPRLPRPRPRPPIWPRP, the “shrunken log2 fold change” value was -0.109.
For RRIRARPPRLPRPRPRPNKTPRP, the “shrunken log2 fold change” value was -0.105.
For RRIRSRPPRLPRPRPRPNSRPRP the value was -0.105; for RRIRKRPPRLPRPRPRPGELPRP, -0.012; for RRIRLRPPRLPRPRPRPVKYPRP, -0.446.
For RRIRYRPPRLPRPRPRPIMEPRP the value was -0.0134; for RRIRHRPPRLPRPRPRPTHSPRP, -0.192; for RRIRCRPPRLPRPRPRPHRFPRP, -0.0713.
Consider RRIRCRPPRLPRPRPRPLKDPRP, for which the “shrunken log2 fold change” value is -0.0917.
Regarding RRIRDRPPRLPRPRPRPPYLPRP, the “shrunken log2 fold change” value is -0.0541.
Take RRIRDRPPRLPRPRPRPKGAPRP: the “shrunken log2 fold change” value was found to be 0.368.
The figure for RRIRHRPPRLPRPRPRPYKPPRP is -0.466; for RRIRNRPPRLPRPRPRPNLDPRP it is -0.136.
Consider RRIRPRPPRLPRPRPRPSNTPRP, for which the “shrunken log2 fold change” value was -0.316.
Turning to RRIRARPPRLPRPRPRPQKHPRP, the “shrunken log2 fold change” value was 0.0336.
Take RRIRWRPPRLPRPRPRPTLLPRP: the “shrunken log2 fold change” value came out at 0.104.
Consider RRIRARPPRLPRPRPRPSNEPRP, for which the “shrunken log2 fold change” value amounted to 0.167.
In the case of RRIRLRPPRLPRPRPRPYLHPRP, the “shrunken log2 fold change” value was -0.447.
For the sequence RRIRGRPPRLPRPRPRPNVTPRP, the “shrunken log2 fold change” value was found to be 0.35.
Regarding RRIRARPPRLPRPRPRPCNQPRP, the “shrunken log2 fold change” value was -0.253.
Turning to RRIRHRPPRLPRPRPRPNQTPRP, the “shrunken log2 fold change” value is -0.0854.
The figure for RRIRKRPPRLPRPRPRPSGHPRP is -0.0496; for RRIRWRPPRLPRPRPRPWIDPRP it is -0.049; for RRIRFRPPRLPRPRPRPNFQPRP it is -0.272.
On to RRIRLRPPRLPRPRPRPSCYPRP, for which the “shrunken log2 fold change” value is -0.164.
Regarding RRIRVRPPRLPRPRPRPLEHPRP, the “shrunken log2 fold change” value is -0.22.
In the case of RRIRSRPPRLPRPRPRPDGCPRP, the “shrunken log2 fold change” value stood at 0.0344.
For RRIRVRPPRLPRPRPRPQHQPRP the value was -0.571; for RRIRWRPPRLPRPRPRPCNHPRP, -0.427; for RRIRMRPPRLPRPRPRPRARPRP, 1.67.
For RRIRCRPPRLPRPRPRPDQWPRP, the “shrunken log2 fold change” value is -0.197.
In the case of RRIRQRPPRLPRPRPRPVQPPRP, the “shrunken log2 fold change” value was 0.0898.
The figure for RRIRNRPPRLPRPRPRPWWHPRP is -0.104.
The figure for RRIRDRPPRLPRPRPRPRSLPRP is -0.0214; for RRIRWRPPRLPRPRPRPPGFPRP it is 0.209.
The figure for RRIRIRPPRLPRPRPRPWIFPRP is -0.498; for RRIRKRPPRLPRPRPRPPREPRP it is 0.689; for RRIRFRPPRLPRPRPRPVVVPRP it is -0.0228.
As to RRIRQRPPRLPRPRPRPAAHPRP, the “shrunken log2 fold change” value came to 0.179.
RRIRSRPPRLPRPRPRPLNDPRP: the “shrunken log2 fold change” value is -0.182.
Regarding RRIRWRPPRLPRPRPRPCNTPRP, the “shrunken log2 fold change” value was -0.169.
The figure for RRIRGRPPRLPRPRPRPEVEPRP is 2.03; for RRIRQRPPRLPRPRPRPAHDPRP it is -0.161.
In the case of RRIRCRPPRLPRPRPRPTDQPRP, the “shrunken log2 fold change” value worked out at 0.38.
Take RRIRARPPRLPRPRPRPNFDPRP: the “shrunken log2 fold change” value came to 0.281.
Consider RRIRFRPPRLPRPRPRPWNNPRP, for which the “shrunken log2 fold change” value is -0.0242.
As for RRIRPRPPRLPRPRPRPKFNPRP, the “shrunken log2 fold change” value is -0.404.
As to RRIRKRPPRLPRPRPRPIPPPRP, the “shrunken log2 fold change” value came to 0.385.
Take RRIRRRPPRLPRPRPRPRCCPRP: the “shrunken log2 fold change” value was 0.43.
Consider RRIRPRPPRLPRPRPRPPGRPRP, for which the “shrunken log2 fold change” value was determined as 0.567.
Consider RRIRMRPPRLPRPRPRPGKWPRP, for which the “shrunken log2 fold change” value amounted to 0.204.
Consider RRIRSRPPRLPRPRPRPFYYPRP, for which the “shrunken log2 fold change” value was -0.615.
In the case of RRIRGRPPRLPRPRPRPVVTPRP, the “shrunken log2 fold change” value is -0.216.
For RRIRIRPPRLPRPRPRPIQEPRP the value was 0.0527; for RRIRERPPRLPRPRPRPCTMPRP, 0.018.
With RRIRERPPRLPRPRPRPDGEPRP, the “shrunken log2 fold change” value was -0.115.
Take RRIRRRPPRLPRPRPRPCDKPRP: the “shrunken log2 fold change” value was -0.00163.
The figure for RRIRKRPPRLPRPRPRPIFDPRP is 0.205; for RRIRQRPPRLPRPRPRPVGNPRP it is -0.108.
In the case of RRIRFRPPRLPRPRPRPAYLPRP, the “shrunken log2 fold change” value is -0.649.
RRIRERPPRLPRPRPRPFMLPRP: the “shrunken log2 fold change” value is -0.511.
As to RRIRLRPPRLPRPRPRPAPYPRP, the “shrunken log2 fold change” value worked out at 0.0426.
For RRIRKRPPRLPRPRPRPGRVPRP the value was 0.58.
For RRIRRRPPRLPRPRPRPICIPRP the value was 0.232; for RRIRWRPPRLPRPRPRPMAYPRP, -0.0846; for RRIRRRPPRLPRPRPRPMYPPRP, -0.197.
Consider RRIRNRPPRLPRPRPRPLYCPRP, for which the “shrunken log2 fold change” value was -0.793.
For RRIRSRPPRLPRPRPRPEVYPRP the value was 0.104; for RRIRERPPRLPRPRPRPSKQPRP, 0.0844.
For RRIRPRPPRLPRPRPRPYEEPRP the value was -0.214.
For RRIRHRPPRLPRPRPRPSQKPRP, the “shrunken log2 fold change” value is -0.0338.
With RRIRVRPPRLPRPRPRPMIQPRP, the “shrunken log2 fold change” value is -0.403.
Turning to RRIRLRPPRLPRPRPRPTWGPRP, the “shrunken log2 fold change” value was determined as 0.637.
Consider RRIRSRPPRLPRPRPRPNKQPRP, for which the “shrunken log2 fold change” value is -0.221.
The figure for RRIRGRPPRLPRPRPRPHEDPRP is 3.55; for RRIRVRPPRLPRPRPRPKCMPRP it is 0.0847; for RRIRYRPPRLPRPRPRPMCNPRP it is -1.82.
For the sequence RRIRCRPPRLPRPRPRPQLHPRP, the “shrunken log2 fold change” value was -0.213.
For RRIRMRPPRLPRPRPRPIDNPRP, the “shrunken log2 fold change” value came out at 0.213.
For the sequence RRIRFRPPRLPRPRPRPCDQPRP, the “shrunken log2 fold change” value was -0.0178.
Regarding RRIRIRPPRLPRPRPRPCAMPRP, the “shrunken log2 fold change” value is -0.424.
On to RRIRQRPPRLPRPRPRPIIFPRP, for which the “shrunken log2 fold change” value was -0.271.
With RRIRWRPPRLPRPRPRPETYPRP, the “shrunken log2 fold change” value is -0.231.
In the case of RRIRRRPPRLPRPRPRPCQHPRP, the “shrunken log2 fold change” value was -0.153.
In the case of RRIRWRPPRLPRPRPRPLQIPRP, the “shrunken log2 fold change” value is -0.125.
RRIRTRPPRLPRPRPRPDNEPRP: the “shrunken log2 fold change” value is -0.248.
With RRIRWRPPRLPRPRPRPKDPPRP, the “shrunken log2 fold change” value was -0.0777.
Take RRIRDRPPRLPRPRPRPVWVPRP: the “shrunken log2 fold change” value is -0.203.
The figure for RRIRRRPPRLPRPRPRPQYIPRP is 0.0837; for RRIRWRPPRLPRPRPRPKGKPRP it is -0.00191.
Take RRIRDRPPRLPRPRPRPMEFPRP: the “shrunken log2 fold change” value was -0.0018.
The figure for RRIRERPPRLPRPRPRPSHKPRP is -0.437; for RRIRIRPPRLPRPRPRPYCDPRP it is -0.0269.
For RRIRGRPPRLPRPRPRPRCDPRP the value was 0.629; for RRIRGRPPRLPRPRPRPCMRPRP, 0.767.
For RRIRARPPRLPRPRPRPAPSPRP, the “shrunken log2 fold change” value worked out at 0.787.
Take RRIRWRPPRLPRPRPRPAECPRP: the “shrunken log2 fold change” value is -0.0444.
RRIRYRPPRLPRPRPRPCANPRP: the “shrunken log2 fold change” value is -0.0013.
